Test results: the RNAGym collection of RNA variant scans (doi:10.1073/pnas.2313332121)

B1: TPR t1 (parent)
chain: GACCAAUCUGCCCUCAGAGCUCGAGAACAUCUUCGGAUGCAGAGGAGGCAGGCUUCGGUGGCGCGAUAGCGCCAACGUCCUCAACCUCCAAUGCAUCCCACCACAUGAUGAUGCCUGAAGAGCCUUGGUUUUUUG

Variants of: B1
Test: polymerase ribozyme fitness, log enrichment relative to wild type (log ratio); higher = more active; in vitro selection for triplet polymerase activity
Procedure, shortened: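 Only genotypes with ≥10 input reads and ≥1 read per output were kept after Illumina sequencing of input and output libraries. These libraries were PCR-built, transcribed mutants of each subunit of a heterodimeric triplet polymerase ribozyme, each put through one triplicate in vitro selection round with frozen incubation at −7 °C, gel excision of extended constructs, streptavidin-bead capture and RT-PCR. Fitness is a logarithmic ratio of genotype enrichment to wild-type enrichment, from inverse-variance-weighted replicate averages, with the logarithm in base 2.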

Variant | polymerase ribozyme fitness (log ratio)
C64A C115U | -5.54
C62U A74C C89A C104A U112C | -2.59
C64G U112G | -6.14
G63U G120C U131A | 0.507
G61U G69U G120A | 0.591
G63A U116C G127U U133A | -5.28
G61U C72U U131A | -0.274
G63U U112A G120A | -1.02
C62A C104A A119U | -3.63
G63U C97U U112C A121C | 0.0312
C64U A84C C94G | -1.23
C62G U129A | -3.98
G63A C73A A119C G120C | -1.42
C62U U109A G117U A119C | -7.11
C64U U112G C124G G135A | 1.56
G63A U132C | -1.92
G63A A90C | -2.84
G63U U96C | -1.31
G61U G77A U130G | -0.935
G63A A91G U129A | -3.01
G65A A119U | -6.05
A66G U126G | -2.72
G63C U78A | -0.719
G63U G127A | -2.25

Variant | polymerase ribozyme fitness (log ratio)
C64A G120C | -3.88
C62G A121U | 0.647
G63U C73U | -2.45
C62G C94U | -1.28
G63U C72U C115A | -1.23
C62G C101U | -1.28
G63A C115U | -1.45
G63C A90G G93U A118G | -1.31
C64U C124U | 0.756
A66U A105U | -4.44
C62U G93C A105U | -3.5
C62U C82U | 1.12
C62A C97U U106A | -1.52
G63C U116A | -3.47
C62A C79A G117C | -6
C62A U87C | -0.344
G61U U109A U125A | -5.58
G65A | -3.57
G65C | -5.62
G65U | -4.27
C64U G128A | -1.84
C62U U78C C94A | -1.92
C64U A83C | -0.261
C62U U126G | -3.05

Variant | polymerase ribozyme fitness (log ratio)
G61U C70U | -2.03
C62U A118G | 0.164
G63U U130C | -1.84
C62U A84G C101A | -1.66
C64U C124U U130G | 0.174
C64U C86A U129A | -1.99
A66C G113C G120U | -5.98
A66G U106G | -3.66
C62U A108G | -1.69
G61U C73A U78A | -1.43
G63A U129G | -0.825
C64U A121C | 1.93
C62U A84C G117C C124A | -2.09
G63A U96G U112A | -1.56
G63A C79G | -3.65
G63A C79U | -1.07
G63A C73G | -4.71
G63C C102A U112A | -1.64
C62U U116A G128A | -5.25
G63A C79U A83G C123G | 0.0609
C64U C73U C82U | -0.57
G65A C79U | -3.57
G65C C123G U133A | -4.9
C62G G93U | -2.74

Variant | polymerase ribozyme fitness (log ratio)
C62G G93A | -1.76
C62U C80G | -6.35
G63C C76U U87G U116A G120A | -4.12
C64U U96C | -0.0442
G63A C102U | -3.27
G63A C64U C73G C80U G93A C97U G117U | -6.14
G63U C70G A118G U125A | -1.35
G63C G127U | -1.97
G61U C72U | -0.409
G63C U130A | -0.551
C64U C98U | -0.89
G61U C88U | -0.259
C62G A95U | -2.37
G63C C101U G127U | -1.08
C64A G93C G117C | -6.1
G63A C98G | -6.74
G63A C98U | -2.12
C62G C79U U81A C85A | -6.14
C64A C80G A83U C99U A103C U125A | -7.56
C64G G120U | -6.39
G63A U81A | -2.01
G63A A75G G122A G127U | -3.17
C62U C94U | -0.381
C62U G110C | -3.93

Variant | polymerase ribozyme fitness (log ratio)
C62G U87A | -2.48
C62U U132A | -0.469
C62U U132C | -0.257
G61U C104U A108C A121U | -2.95
C64U A66G | -3.44
C62A A75U A111C | -1.81
G63C C85G | -1.96
G61U C102G G120C | -6.46
C64A G117C | -6.03
C64A G117U | -6.44
G63A A105G | -3.92
C62G A84U A108G | -5.29
G63U A111C | -1.67
C64U C98U G120U | -0.972
G63A A121C G135A | 0.83
C62U A74U U78A | -0.615
C62U C76U | -0.133
G61U U116A | -3.38
G61U C82A C89G C101A C102A U112C C123A | -7.12
G61U G77C C79U | -0.442
C62A G110C | -5.17
C62A G110U | -2.92
G61U C62A | -5.14
G63C C97G | -4.59

Variant | polymerase ribozyme fitness (log ratio)
G63U A90U G113C | -3.41
C64A A83U | -7.05
G63A U112A C114G G122U | -1.75
G61U C114G | -1.85
C64A U112G G122A | -7.31
C64A C80G A103C U109G A118U | -5.65
C62A A90C U112A | -2.63
C62U G120U | -0.189
G63A C82G | -1.41
C62U A95U | -2.57
G63U C85U | -2.96
C62G G117A U129G | -6
G63U C104A U133A | -3.31
G63U A83U C101G | -2.97
G65U C124A | -4.07
C64U U78C | -0.191
G63C G110U C123U G128C | -5.59
G63U G117U U129G | -6.2
G63A G135U | -1.49
C62U A74U | -0.71
G61U U129G | -1.79
C62U C124G | 1.52
C64U A75U G93A | -0.503
G65U C72A C88G C124A | -5.79

Variant | polymerase ribozyme fitness (log ratio)
C64A U96G C123U | -6.2
G61U G69C C72U A111C | -6.94
G63U G93A C124A | 0.423
G61U C86A C115U | -1.4
C64U C85A | -3.12
C64U A75U U116G G122A C124G | 0.737
C62A U130A | -1.33
A66U C80A | -5.71
G63A A83G U106A | -3.25
G61U C89G | -1.53
G63U A103G | -5.82
G63C U125G | -2.2
C62U G77A U87A A111U G122U | -5.7
G63U A121C | 0.0306
G63U A121U | 0.749
G63U C85A C88U C101G C115A C124A U129C | -2.52
G63A C82G G117U C123G | -3.95
G61U U92A | -2.49
C62U G69C C102G U130G | -7.34
C62G U87C A111G | -3.32
C62U G71U G120U | 0.0266
C64G C124A | -4.25
G63A A83G A90G C98G A105C | -7.87
